Here are results for 2 proteins from article PMC9287727, “Structural snapshots of nitrosoglutathione binding and reactivity underlying S-nitrosylation of photosynthetic GAPDH” (Redox Biology, 2022).

Series [1] deals with the molecule itself. As to the kind of experiment: crystal structure; CrGAPA with 1 mM NADP+ or NAD+, hanging drop at 293 K, 1.2-1.6 M (NH4)2SO4, 0.1 M Tris-HCl pH 7.5-8.5; dimer in the asymmetric unit, tetramer by a crystallographic 2-fold axis.
Series [2] deals with the molecule itself. As to the kind of experiment: crystal structure; oxidized NADP+-CrGapA, hanging drop at 293 K, 1.2-1.6 M (NH4)2SO4, 0.1 M Bicine pH 9.5; dimer in the asymmetric unit, tetramer by a crystallographic 2-fold axis.

B1: photosynthetic glyceraldehyde-3-phosphate dehydrogenase from Chlamydomonas reinhardtii (CrGAPA) (enzyme, UniProt P50362 35-374, looked up)
chain: EKKIRVAINGFGRIGRNFLRCWHGRQNTLLDVVAINDSGGVKQASHLLKYDSTLGTFAADVKIVDDSHISVDGKQIKIVSSRDPLQLPWKEMNIDLVIEGTGVFIDKVGAGKHIQAGASKVLITAPAKDKDIPTFVVGVNEGDYKHEYPIISNASCTTNCLAPFVKVLEQKFGIVKGTMTTTHSYTGDQRLLDASHRDLRRARAAALNIVPTTTGAAKAVSLVLPSLKGKLNGIALRVPTPTVSVVDLVVQVEKKTFAEEVNAAFREAANGPMKGVLHVEDAPLVSIDFKCTDQSTSIDASLTMVMGDDMVKVVAWYDNEWGYSQRVVDLAEVTAKKWVA
notes: Glyceraldehyde-3-phosphate dehydrogenase A, chloroplastic (GAPA), Chlamydomonas reinhardtii; mature protein; Homotetramer of A-type subunits; also called NADP-CrGAPA; NAD-CrGAPA
Take B1: the stoichiometry N – broadly, the number of molecules, sites or subunits per partner or assembly – in series [1] turned out to be 4.

B2: oxidized NADP+-CrGAPA (catalytic Cys149 oxidized to sulphinate/sulphonate) (enzyme, Chlamydomonas reinhardtii, UniProt P50362 35-374, looked up)
chain: B1 chain
modifications: Cys149 oxidized to sulphinate/sulphonate (-SO2-/-SO3-)
notes: Glyceraldehyde-3-phosphate dehydrogenase A, chloroplastic (GAPA), Chlamydomonas reinhardtii; mature protein; Same construct as m1; Cys149 found oxidized in crystals grown in 0.1 M Bicine pH 9.5 with NADP+
Consider B2, for which the “stoichiometry N” value in series [2] was found to be 4.
